Laboratory results as given in patent US20260085127A1.

Assays:
[1] = target: T1, human CD39 (Accession No. NM_001776.6) expressed on cells (human) (UniProt P49961); assay: flow cytometry, Jurkat/CD39 cells, KD from MFI
T1 sequence (looked up): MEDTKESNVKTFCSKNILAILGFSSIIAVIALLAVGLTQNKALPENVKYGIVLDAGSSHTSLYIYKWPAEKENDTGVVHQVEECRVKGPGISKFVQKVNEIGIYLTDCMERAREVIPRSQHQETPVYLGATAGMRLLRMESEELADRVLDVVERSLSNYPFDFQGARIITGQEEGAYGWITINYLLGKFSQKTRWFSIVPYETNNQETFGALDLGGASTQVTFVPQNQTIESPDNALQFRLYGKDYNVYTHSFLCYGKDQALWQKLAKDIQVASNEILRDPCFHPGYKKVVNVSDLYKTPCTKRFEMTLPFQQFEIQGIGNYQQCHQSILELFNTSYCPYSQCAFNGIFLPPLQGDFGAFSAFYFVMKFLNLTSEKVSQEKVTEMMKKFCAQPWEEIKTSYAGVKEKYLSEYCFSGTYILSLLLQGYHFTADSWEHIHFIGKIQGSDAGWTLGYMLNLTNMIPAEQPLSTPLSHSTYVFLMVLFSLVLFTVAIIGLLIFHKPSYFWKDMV

[2] = target: T1, human CD39 (Accession No. NM_001776.6) expressed on cells (human); assay: flow cytometry, Jurkat/TIM-3 + CD39 cells, KD from MFI
[3] = target: T2, recombinant human CD39 (in-house product, 38 to 478 aa of Accession No. NM_001776.6) (human) (UniProt P49961); assay: SPR Biacore8K, antibody captured on anti-human IgG, antigen as analyte
T2 sequence (looked up): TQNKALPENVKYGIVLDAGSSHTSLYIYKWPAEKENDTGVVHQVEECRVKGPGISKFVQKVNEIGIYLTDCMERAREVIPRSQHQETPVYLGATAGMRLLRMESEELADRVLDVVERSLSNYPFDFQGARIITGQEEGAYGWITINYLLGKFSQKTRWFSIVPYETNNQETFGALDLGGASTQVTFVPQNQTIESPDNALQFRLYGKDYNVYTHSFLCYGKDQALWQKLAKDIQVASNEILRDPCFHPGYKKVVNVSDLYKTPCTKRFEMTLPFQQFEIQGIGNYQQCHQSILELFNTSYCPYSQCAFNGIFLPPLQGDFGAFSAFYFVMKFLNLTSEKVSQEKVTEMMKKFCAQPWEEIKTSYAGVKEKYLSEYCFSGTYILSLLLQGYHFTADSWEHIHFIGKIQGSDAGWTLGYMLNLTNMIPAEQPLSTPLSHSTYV

B1: HuP4_41_sc (antibody, part only; not given: linker and LALA Fc, not shown: a dimerising Fc or GST)
scFv, part: QVQLVESGGGVVQPGGSLRLSCVVSGFTLTNYGVHWVRQAPGKGLEWLAVILRRGSTDYNAAFMSRLAISKDNSKNTVYLELNSLRLDDTAVVAGDYFDYWGQGTTVTVSSGGGGSGGGGSGGGGSGGGGSQVQLVESGGGVVQPGGSLRLSCVVSGFTLTNYGVHWVRQAPGKGLEWLAVILRRGSTDYNAAFMSRLAISKDNSKNTVYLELNSLRLDDTAVVAGDYFDYWGQGTTVTVSS
With B1 the Kd [1] was 1.88 nM, the Kd [2] was 2.08 nM and the Kd [3] was 0.106 nM. The koff [3] was 0.000176 s⁻¹ and the kon [3] was 1.66e+06 M⁻¹ s⁻¹.
